Assay results as given in the nanobody polyreactivity screen of Harvey et al. (2022).

Test: yeast display, Sf9 membrane polyspecificity reagent, FACS + sequencing; frameworks hold sequencing errors
Outline: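 In a synthetic yeast display library (Saccharomyces cerevisiae BJ5465), nanobody expression was induced with galactose for 36–48 hours. FACS gates were set low and high (top ~1%) using anti-HA fluorescence for expression and streptavidin fluorescence for binding of the Sf9 membrane reagent. Each polyreactivity label is drawn from the gate of origin.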

Row | Sequence | polyreactivity (PSR sort gate)
1 | QVQLVESGGGLFQAGGSLRLSCAASGRIFDYNVMGWYRQAPGKERELVADINGSGGGTNYADSVKGRFTISRDNAKNTVYLQMNSLKPEDTAVYYCNADSYEYHVPYYDYRYDYWGQGTQVTVSS | low polyreactivity
2 | QVQLVESGGGLDQAGGSLRLSCAASGRIFCQYAMGWYRQAPGKERELVAAMSRSGGSTYYAHSVKGRFTISRDNAKNTVYLQMTSLKPEDTAVYYCAARKASGDPGSAGRPEYYYWGQGNQVTVSS | high polyreactivity
3 | QDQLVESVVGLVQAGGSLRLSCAASGRIFEDYAMGWYRQAPGKERELVARICSGDSTNYADSVKGRFTISRDNAKNTVYLQMNSLKPEDTAVYYCAAEGGVQEFDFCGQGTQVTVSS | low polyreactivity
4 | QVQLVESGGGLVQAGGSLRLSCAASGRTFGLNAMGWYRQAPGKDRELVAAISSSGGSTYYADSVKGRFTISRDNAKNTVYLQKNSLKPEDTAVYYCAKGLYRYGTAYYYWGQGTQVTVSS | high polyreactivity
5 | QVQLVESGGGLVQAGGSLRLSCAASGSISPQNVMGWYRQAPGKERELVAAITWTGTSTYADSVKGSFTISRDNAKNTVYLQMNSLKPEDTAVYYCAARYYAPRWFRYDYWGQGTQVTVSS | low polyreactivity
6 | QVQLVESGGGLVQAGGSLRLSCAASGYTFAYNAMGWYRQAPGKERELVAVITWSGDSTYYADSVKGRFTISRDNAKNTVYLQMNSLKPEDTAVYYCAAQVDRWKGREHDYWGQGTQVTVSS | low polyreactivity
7 | QVQLVESGGGLVQAGGSLRLSCAASGSIFNYYAMGWYRQEPGKERELVAAISSGGSTYYADSVKGRFTISRDNAKNTVYLQMNSLKPEDTAVYYCAVDSPYLDEYDYWGQGTQVTVSS | high polyreactivity
8 | QVQLVESGGGLVQAGGSLRLSCAASGSIFYGYTMGWYRQEPGKERELVAAIRKSGGSTNYADSVKGRFTISRDNAKNNVYLQMNSLKPEDTAVYYCAAAYYRGRGYYWGQGTQVTVSS | high polyreactivity
9 | QVQLVESGGGLVQAGGSLRLSCAASGFIGSNTMGWYRQAPGKERELVAAISWSGGSTYYADSVKGRFTISRDNAKNTVYLQMNSLKPEDTAVYYSAARRNSRARRTFGYWGQGTQVTVSS | high polyreactivity
10 | QVQLVESGGGLVQAGGSLRLSCAASGYIFHRYAMGWYRQAPGKERELVAAISWRVTSTFYADSVKGRFTISRDNAKNTVYLQMNCLKPEDTAVYYCASVKWVGYKYWSSRKYDYWGQGTQVTVSW | high polyreactivity
11 | QVQLVESGGGLVQAGGSLRLSCAASGFTFNRYAMGWYRQAPGKERELVAAISRGGGSTYYADSVKGRFTISRDNAKNTVYLQMNSLKPEDTAVYYCAADTRVRTCRYGFWGQGTQVNVSS | high polyreactivity
12 | QVQLVESGGGLVQAGGSLRLSCAAYGRIFLLYAMGWYRQAPGKERELVAGISIGGSTNYADSVKGRFTISRDNAKNTVYVQMNSLKPEDTAVYYCNAKRYFASRKNGYYYWGQGTQVTVSS | high polyreactivity
13 | QFQLVESGGGLVQAGGSLRLSCAASGRTFYDNTMGWYRQAPGKERELVAAITRNGGSTYYADSVKGRFTISRDNAKNTVYLQMNSLKPEDTAVYYCAAEGPSHRLNVRLVKGSDSWGQGTQVTVSS | low polyreactivity
14 | QVQLVETGGCLVQAGGSLRLSCAASGSTFYLYAMGWNRQAPGKETDLVASISQSGGSTIYADSVKGRFTISRDNAKNTVYLHMNSLKPEDTAVYYFAAGAGYFRYPRSGVWYVTLYDYWGEGTQVTVSS | high polyreactivity
15 | QVQLVESGGGLVQAGGSLRLSCAASGRTIRSYAMGWYSPAPGKERELVAAITGSGGRTYYADSVKGRFTISRDNATNTVYLQMNSLKPEDTAVYYCAARLRGSYDYWGQGTQVTVSS | high polyreactivity
16 | QGQLVESGGGLVQAGGSLRLSCAPSGSTVWVNVMGCYSPARGKERELVAAIDSGGSTYYADSVKGRFTISRDKAKNTVYLQMISLKPEDTAVYYCNARVDTPSPYDYWGQGTQVTVSS | low polyreactivity
17 | QVQLVESGGGLVQAGGSLRLSCASSGRTFRYNAMGWYIQAPGKESELVAAISRSGGRTYYADSVKGRFTISRDNAKNTVYLQMNSLKPEDTAVYYCAAYYYTAGDSSSRYDYWGQGTQVTVSS | high polyreactivity
18 | QVQLVESGGGLVQAGGSLRLSCAASGSTIRSNAMGWYRQEPGKERELVAAISRTGGRTYYADSVKGRFTISRDNAKNTVYLQMNSLKPEDTAVYYCARPDKGLEYSENYYWGQGTQVTVSS | high polyreactivity
19 | QVQLVESGGGLVQAGGSLRLSCAASGRTFVRNAMGWYRQAPGKERELVAGITRSGGSTYYADSVKGRFTISRDNAKNTVYLQMNSLKPEDTAVYYCAKRYDVYVGTVRPYDYWGQGTQVTVSS | low polyreactivity
20 | QVQLVESGGGLVQAGGSLRLSCAASGSIFHFYVMGWYRQAPGKERELVAGISSSGGRTYYADSVKGRFTISRDNAKNTFYLQMNSLKPEDTAVYYCANDMYHSVGRYDYWGQGTQVTVSS | low polyreactivity
21 | QVQLLESGGGIVQAGGSLRLSCVASGFTISVYAMVWYRHAPGKERELVAAISRVGSSNYADSVKGRFTISRDNAKNTVYLHMISLKTEDTSVYYCNAVLRHTWVSRGYGSWGQGTQVSVSS | high polyreactivity
22 | QVQLVESGGGLVQAGGSLRLSCPASGRTFYGYPMGWYRQAPGKERELVAAISRRGGSTNYADSVKGRFTISRDHAKNTVYLQMNSRKPEDTAVYSCNANYYRTHYDYWGQGTQVTVSS | high polyreactivity

Row | Sequence | polyreactivity (PSR sort gate)
23 | QVQLVESGGGLVQAGGSLRLSCAASGNTFPIYAMGWSRQAPGKERELVAAIRSSTGSTYYADSVKGRFTISRDYAKNTVYLQMNSLKPEATAVYYCAAAGVTSVVYGTRYYYWGQGTQVTVSS | high polyreactivity
24 | QVQLVESGGGLVQAGGSLRLSCAASGFTFPRYAMGWYRQAPGKERELVAAISTSGDSTYYADSVKGRFTISRDNAKNTVYLQMNSLKPEDTAVYYCAARVVRGRYGYWGQGTQVTVSS | high polyreactivity
25 | QVQLVESGGGLVQAGGSLRLSCAASGRIFEPYTMGWYRQAPGKEREFVATITASGDSTYYADSVKGRFTISRDNAKNTVYLQMNSLKPEDTAVYYCAAAPFGGYEYDYWGQGTQVTVSS | high polyreactivity
26 | QVQLVESGGGLLQAGGSRRIRCAASGRIFWVYAMGWYRKAPGKERELVAAISSTGDGTYYADSVKVRFTISRDNAKNSVYLEMNSLKPDDTAVYYCAADFRVARSPLSGGSDFWGQGTQVTVSS | low polyreactivity
27 | QVQLVESGGGLVQAGGSLRLSCAASGSIFYVYAMGWYRQAPGKERELVATISSSAGSTYYADSVKGRFTISRDNAKNTVYLQMNSLKPEDTAVYYCAVRQIYQTSDHRLQYDYWGQGTQVTVSS | low polyreactivity
28 | QVQLVESGGGLVQAGGSLRLSCAASGSIFYLNAMGWYRQAPGKERELVAAITNGGSTYADSVKGRFTISRDNAKNTVYLQMNSLKPEDTAGYYCATRSWELGDYWGQGTQVTVSS | low polyreactivity
29 | QVQLVESGGGLVQAGGSLRLSCAASGRIFLRNDMGWYRQAPGKVRELVAGISSDGSTYYADSVKGRFTISRDNAKNTVYLQMTSLKPEDTAVYYCNAEDTPGAGDGNWGQGTQVTVSS | low polyreactivity
30 | QVQLVESGGGLVQAGGSLRLSCAASGFTFARYAMGWYRQAPGKERELVAAINWSGGRTYYADSVKGRFTISRDNAKNTVYLQMNSLKPEDTAVYYCNAWGLVYYSSGYDYWGQGTQVTVSS | high polyreactivity
31 | QVQLVESGGGLVQAGGSLRLSCAASGSIFDFYSMGWYRQAPGKERELVAAISRGGSTYYADSVKGRFTISRDNAKNTVYFLMNSLKPEDTGVDYCAARDGVLVSWLWFWCDSPYGYWGQGTQGTVSS | low polyreactivity
32 | QVQLVESGGGLVQAGGSLRLSCAASGRTFNWNALGWYRQAPGKERELVATISRRGGSTYYADSVKGRFTISRDNAKNTVYLQMNSLKREDTAVYYCITAGRYGYDYWGQGTQVTVSS | high polyreactivity
33 | QVQLVESGGGLVQAGGSLRLSCAASGSIFVKNVMGWYRQAPGKERELVAAISSSGGRTYYADSVKGRFTISRDNAKNTVYLQMNSLKPEDTAVYYCNKAYPGRRDGSYDYWGQGTQVTVSS | high polyreactivity
34 | QVELVVSGGGLVQAGGSLRLSCAAYGSIFLGNAMGWYRQAPGKEREFVAGIRGSAGTTSYADSVKGRFTISRDNAKNPGYLQMNSLKPEDTAVYYCAARPRHSDGYYYWGQGTEVTVSS | high polyreactivity
35 | QVQLVESGGGLVQAGGSLRISCAASGSTFYCYAMGWYRQAPGKERELVAAIRRNGDGTYYADSVKGRFTISRDNAKNTVYLQMNSLKPVDTAVYYCAARRFIPRFNYWGQGTQVTVSS | high polyreactivity
36 | QVQLVESGGGLVQAGGSLRLSCAASGNTFYFNAMGWYRQAPGKERELVAAITSGGNTNYADSVKGRFTISRDHAKNTFNLQMNSLKPEDSAVYYCNVPRFSPIRNYDYWGQGTQVTVSS | high polyreactivity
37 | QVQLVESGGGLVQAGGSLRLSCAASGLTFKRYAMGWYRQAPGKERELVASITGNGGSTYYADSVKGRFTISRDNAKNTFYLQMNSLKPEDTAVYYCNVGYRGWSVNSWGQGTQVTVSS | high polyreactivity
38 | QVQLVESGGGLVQAGGSLRLSCAASGYIVDRNAMGWYRQAPGKERELVAAITKRGGITYYADSVKGRFTISRDNAKNTVYLQMNSLKPEDTAVYYCNALARSSRYDYWGQGTQVTVSS | low polyreactivity
39 | QVQLVESGGGLVQAGGSLGLSCAASGRTFGRYVMGWYRLAPGTEWELVAAIRSSGGGTYYADSVKGRFTISRDNAKNTVYLQMNSLKPEETAVYYCAKEYSIGIRWEYDYWGQGTQVTVSS | low polyreactivity
40 | QVQLVESGGGLVQAGGSLRLSCAASGSIFFAYDMGWYRQAPGKERELVAAISNIDGSTYYADSVKGRFTISRDNAKNTVYLQMNSVKPEDTAVYYCATRVYYLYDYWGQGTQVTVSS | low polyreactivity
41 | QVQLVESGGGLVQAGGSLRLSCAASGSIFGLYAMGWYRQAPGKERELVAAINQSGGSTSYADSVKGRFTISRDTAKNTVYLQMNSLKPEDTAVYYCAVAIVTSGPFPRDYWGQGTQVTVSS | low polyreactivity
42 | QVQLVESGGGLVQPGGSLRLSCAASGRISSYYAMGWYRQAPGKERELVAAISNAGSTKYADSVKGRFTISRDNAKNTVYLQMNRLKPEDTAVYYCNARSYRWSWVLRYDYWGKGTQVTVSS | high polyreactivity
43 | QVQLVESGGGLVQAGGSLRLSCAASGYIFRVYAMGWYRQAPGKERELVAAISSGGSTYYADSVKGRFTISRDNAKNTVYLQMNSLKPEDTAVYYCAKAGLALYAFRDDYWGQGTQVTVSS | low polyreactivity
